Read-outs that look alike come from different tables or passages of the source.
T1: recombinant human cathepsin O2 (Homo sapiens, UniProt P43235)
T1 construct: the mature protein spans from position 115 to 329 (215 amino acids); made in house; host or cells: Sf9 insect cells (baculovirus, pVL1392)
T1 sequence (P43235 115-329): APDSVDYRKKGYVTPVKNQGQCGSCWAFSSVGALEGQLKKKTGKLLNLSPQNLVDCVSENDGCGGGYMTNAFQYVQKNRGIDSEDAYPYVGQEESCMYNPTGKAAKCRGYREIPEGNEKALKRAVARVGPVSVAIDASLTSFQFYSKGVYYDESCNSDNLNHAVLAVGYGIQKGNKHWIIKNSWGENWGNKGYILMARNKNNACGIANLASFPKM


What was measured:
[1] = pH activity profile; format: biochemical; details: for pH optimum: calculated from (pK1 + pK2)/2
Procedure: Initial rates of substrate hydrolysis were monitored as described above. The pH activity profile of human cathepsin O2 was obtained at 1 μM substrate (Z-FR-MCA) concentration ([S]<<Km where the initial rate vo is directly proportional to the kcat/Km value). The following buffers were used for the pH activity profile: 100 mM sodium citrate (pH 2.8-5.6) and 100 mM sodium phosphate (pH 5.8-8.0). All buffers contained 1 mM EDTA and 0.4 M NaCl to minimize the variation in ionic strength. A three protonation model (Khouri et al., Biochem. 30:8929-8936 (1991)) was used for least square regression analysis of the pH activity data. The data were fitted to the following equation.
(kcat/Km)obs=(kcat/Km)/([H^+]/K1+1+K2/[H^+])

[2] = pH stability at 37° C.; format: physicochemical
Procedure: The residual activity was measured in time intervals using the above described fluorimetric substrate assay. The pH stability of cathepsins O2, S and L was studied at three different pH values. Recombinant human cathepsins O2, S and L were incubated at 37° C. in 100 mM sodium acetate buffer, pH 5.5, in 100 mM potassium phosphate buffer, pH 6.5 and in 100 mM Tris/HCl, pH 7.5 containing 5 mM dithiothreitol and 2.5 mM EDTA. Incubating for 0.5, 1, 2 and 4 hours, the activity remaining was determined using 5 μM Z-FR-MCA for cathepsin O2 (100 mM potassium phosphate buffer, pH 6.5) and cathepsin L (100 mM sodium acetate buffer, pH 5.5) and 5 μM Z-VVR-MCA for cathepsin S (100 mM potassium phosphate buffer, pH 6.5).

[3] = tested on: [^3H] elastin; experiment: Elastin degradation assay; format: biochemical
Procedure: Elastin (2 mg) was incubated in I ml buffer containing 2.5 mM dithiothreitol, 2.5 mM EDTA and 0.05% Triton X-100 for the cathepsin O2, S and L assays. Aliquots were withdrawn after 10, 20, 30, 50, 90, 120 and 180 min, centrifuged for 1 min at 14,000×g and counted in a 24-well plate containing scintillation fluid with Liquid Scintillation counter (1450 Microbeta Plus, Wallac/Pharmacia). Concentrations of human cathepsins O2, S and L and bovine elastase in the elastin degradation assay were 65 nM, 28 nM, 80 nM and 80 nM, respectively. To determine the pH effect on protease activity the digests were carried out at pH 4.5 and 5.5 (100 mM sodium acetate, 2.5 mM each dithiothreitol and EDTA, 0.05% Triton X-100), and at pH 7.0 (100 mM Tris/HCl, 2.5 mM each of dithiothreitol and EDTA, 0.05% Triton X-100). Pancreatic bovine elastase (Boehringer, Mannheim, Ind.) was assayed under the same conditions except that neither dithiothreitol nor EDTA was added to the incubation mixture.

[4] = tested on: Soluble calf skin Type I collagen; experiment: Collagenase activity, SDS-PAGE; format: biochemical
Procedure: (§1) FIGS. 9A and 9B depict SDS PAGE of type I collagen (soluble calf skin collagen) after digestion with recombinant human cathepsin O2 and L and bovine trypsin. FIG. 9A: Collagenase activity: Digestion of soluble calf skin collagen at 28° C. and at pH 4.0, 5.0, 5.5, 6.0, 6.5, 7.0 by human cathepsins O2, S and L (each 50 nM) for 12 hours. The reaction was stopped by addition of 10 μM E-64. Untreated soluble collagen was used as standard (S). FIG. 9B: Gelatinase activity: Digestion of denatured soluble calf skin collagen (10 min heated at 70° C.) at 28° C. and at pH 4.0, 5.0, 5.5, 6.0, 6.5, 7.0 by human cathepsin O2 (0.1 nM), cathepsin L (0.2 nM) and human cathepsin S (1 nM). Molecular mass standards are indicated in the left lane.
(§2) Soluble calf skin Type I collagen was diluted to 0.4 mg/ml into 100 mM-sodium acetate buffer, pH 4.5, 5.0, 5.5, in 100 mM-potassium phosphate buffer, pH 6.0, 6.5 and 100 mM-Tris/HCl, pH 7.0 containing 2 mM-dithiotreitol/2 mM-EDTA. Human cathepsins O2, S and L and bovine trypsin (Sigma) were incubated at concentrations of 100 nM enzyme concentration for 10 hours at 28° C. To measure the gelatinase activity of cathepsins O2 and S, Type I collagen was heated for 10 min at 70° C. prior to incubation with the proteases. In the presence of 1 nM proteases the reaction mix was incubated for 30 min at 28° C. The samples were subjected to SDS polyacrylamide electrophoresis using 4-20% Tris-glycine gels (Novex, San Diego, Calif.).

[5] = tested on: denatured soluble calf skin collagen; experiment: Gelatinase activity, SDS-PAGE; format: biochemical
Procedure: as §1, §2

[6] = from literature; cited from earlier work
[7] = target: T1, recombinant human cathepsin O2; experiment: Inhibitor profile, fluorimetric enzyme assay with Z-FR-MCA; format: biochemical
Procedure: Human cathepsin O2 was assayed with a fluorogenic substrate Z-FR-MCA (MCA, methyl coumarylamide) in 100 mM sodium acetate buffer, containing 2.5 mM dithioerythreitol and 2.5 mM EDTA. Initial rates of hydrolysis of the MCA-substrate are monitored in 1-cm cuvettes at 25° C. at an excitation wavelength at 380 nm and an emission wavelength at 450 nm. The concentration of Z-FR-MCA is 5 μM under standard conditions.
The inhibition of cathepsin O2 was assayed at a constant substrate (5 μM Z-FR-MCA) and enzyme concentration (1 nM) in the presence of different inhibitor concentrations in the substrate assay buffer. Cathepsin O2 was preincubated with the inhibitors for 10 min and the reaction was started with substrate. The residual activity was monitored and percent inhibition was calculated from the uninhibited rate.
The efficacy of protease class specific inhibitors to inhibit cathepsin O2 was determined by adding the inhibitor to the purified enzyme in a fluorimetric enzyme assay (described above).

| Molecule | pH optimum [1] | Residual activity (%) ([2]; pH 5.5, 37° C., 0.5 hr) | Residual activity (%) ([2]; pH 5.5, 37° C., 1 hr) | Residual activity (%) ([2]; pH 5.5, 37° C., 2 hr) | Residual activity (%) ([2]; pH 5.5, 37° C., 4 hr) | Residual activity (%) ([2]; pH 6.5, 37° C., 0.5 hr) | Residual activity (%) ([2]; pH 6.5, 37° C., 2 hr) | Residual activity (%) ([2]; pH 6.5, 37° C., 4 hr) | Residual activity (%) ([2]; pH 7.5, 37° C., 0.5 hr) | Residual activity (%) ([2]; pH 7.5, 37° C., 1 hr) | Residual activity (%) ([2]; pH 7.5, 37° C., 2 hr) | Residual activity (%) ([2]; pH 7.5, 37° C., 4 hr) | elastinolytic activity ([3]; pH 4.5) [mg/min/μmol enzyme] | elastinolytic activity ([3]; pH 5.5) [mg/min/μmol enzyme] | elastinolytic activity ([3]; pH 7.0) [mg/min/μmol enzyme] | gelatinase activity [5] | pK1 of pH activity profile [6] | pK2 of pH activity profile [6] | width of the pH profile [6] | collagenolytic activity [4] | other results |
| --- | --- | --- | --- | --- | --- | --- | --- | --- | --- | --- | --- | --- | --- | --- | --- | --- | --- | --- | --- | --- | --- |
| cathepsin O2: recombinant human cysteine protease of the papain family, mature enzyme expressed in Sf9 cells (protein) APDSVDYRKKGYVTPVKNQGQCGSCWAFSSVGALEGQLKKKTGKLLNLSPQNLVDCVSENDGCGGGYMTNAFQYVQKNRGIDSEDAYPYVGQEESCMYNPTGKAAKCRGYREIPEGNEKALKRAVARVGPVSVAIDASLTSFQFYSKGVYYDESCNSDNLNHAVLAVGYGIQKGNKHWIIKNSWGENWGNKGYILMARNKNNACGIANLASFPKM | 6.1 | 91 | 88 | 70 | 52 | 85 | 22 | 15 | 11 | 0 | 0 | 0 | 245 | 286 | 170 | powerful gelatinase activity |  |  |  |  | pK1′ of pH activity profile [1]: 3.43 ± 0.05; width of the pH profile [1]: 4.15; pK1 of pH activity profile ([1]; listed as Human cathepsin O2): 4.0; pK2 of pH activity profile ([1]; listed as Human cathepsin O2): 8.13; pK1 of pH activity profile ([1]; listed as human cathepsin O2): 4.00 ± 0.02; pK2 of pH activity profile ([1]; listed as human cathepsin O2): 8.13 ± 0.01; pH of maximal elastinolytic activity [3]: 5.5; elastinolytic activity relative to pancreatic elastase ([3]; neutral pH): 2.4 times; elastinolytic activity relative to cathepsin L ([3]; pH 5.5): ~9 times; degradation of Type I collagen ([4]; between pH 5.0 and 6.0 at 28° C.): extensively degraded; degradation of Type I collagen ([4]; pH 4.5 and pH 7.0, 28° C.): much less pronounced; time to total degradation of denatured collagen ([5]; 0.1 nM enzyme, pH range of 5.0 to 7.0): ≤ 30 min |
| papain: cysteine protease, literature comparison (protein, UniProt P00784 134-345, looked up) Papain: IPEYVDWRQKGAVTPVKNQGSCGSCWAFSAVVTIEGIIKIRTGNLNEYSEQELLDCDRRSYGCNGGYPWSALQLVAQYGIHYRNTYPYEGVQRYCRSREKGPYAAKTDGVRQVQPYNEGALLYSIANQPVSVVLEAAGKDFQLYRGGIFVGPCGNKVDHAVAAVGYGPNYILIKNSWGTGWGENGYIRIKRGTGNSYGVCGLYTSSFYPVKN | 6.5 |  |  |  |  |  |  |  |  |  |  |  |  |  |  |  | 4.54 ± 0.29 | 8.45 ± 0.02 | 3.91 |  | pK1′ of pH activity profile [6]: 3.58 ± 0.29 |
| cathepsin S: recombinant human cathepsin S expressed using the baculovirus expression system (protein) LPDSVDWREKGCVTEVKYQGSCGACWAFSAVGALEAQLKLKTGKLVSLSAQNLVDCSTEKYGNKGCNGGFMTTAFQYIIDNKGIDSDASYPYKAMDQKCQYDSKYRAATCSKYTELPYGREVDLKEAVANKGPVSVGVDARHPSFFLYRSGVYYEPSCTQNVNHGVLVVGYGDLNGKEYWLVKNSWGHNFGEEGYIRMARNKGNHCGIASFPSYPEI | 6.1 | 100 | 95 | 92 | 83 | 100 | 94 | 71 | 91 | 72 | 61 | 60 | 146 | 102 | 55 | significant weaker activity than the cathepsins O2 and L | 4.49 ± 0.03 | 7.82 ± 0.03 | 3.35 | very weak collagenolytic activity | Residual activity (%) ([2]; pH 6.5, 37° C., 1 hr): 100% |
| chicken cystatin: cysteine protease inhibitor (protein) SEDRSRLLGAPVPVDENDEGLQRALQFAMAEYNRASNDKYSSRVVRVISAKRQLVSGIKYILQVEIGRTTCPKSSGDLQSCEFHDEPEMAKYTTCTFVVYSIPWLNQIKLLESKCQ |  |  |  |  |  |  |  |  |  |  |  |  |  |  |  |  |  |  |  |  | % inhibition ([7]; [inhibitor] 0.1 μM): 100%; inhibition of enzyme activity ([7]; concentrations above 0.1 μM): completely inhibit |
| trypsin: bovine trypsin (Sigma) (protein, UniProt P00760 24-246, looked up) Serine protease 1: IVGGYTCGANTVPYQVSLNSGYHFCGGSLINSQWVVSAAHCYKSGIQVRLGEDNINVVEGNEQFISASKSIVHPSYNSNTLNNDIMLIKLKSAASLNSRVASISLPTSCASAGTQCLISGWGNTKSSGTSYPDVLKCLKAPILSDSSCKSAYPGQITSNMFCAGYLEGGKDSCQGDSGGPVVCSGKLQGIVSWGSGCAQKNKPGVYTKVCNYVSWIKQTIASN |  |  |  |  |  |  |  |  |  |  |  |  |  |  |  |  |  |  |  | No degradation |  |
